Results as given in publication PMC9543379, “Dihydroxy‐Acid Dehydratases From Pathogenic Bacteria: Emerging Drug Targets to Combat Antibiotic Resistance” (Chemistry (Weinheim an Der Bergstrasse, Germany), 2022).

Columns and labels:
[1] = tested on: T1, CC(C)(O)C(O)C(=O)O; assay: Michaelis-Menten kinetics (Km), DNPH assay; type: biochemical, Campylobacter jejuni; details: [4Fe-4S] cluster, Mg2+ active site
T1 construct: hexa-histidine tag at the N-terminal, pET-28a

[2] = tested on: T1, CC(C)(O)C(O)C(=O)O; assay: Michaelis-Menten kinetics (Km), DNPH assay; type: biochemical, Staphylococcus aureus; details: [4Fe-4S] cluster, Mg2+ active site

Row | Substance | Km [1] [µM] | kcat [1] [s⁻¹] | kcat/Km [1] [M⁻¹ s⁻¹] | Km [2] [µM] | kcat [2] [s⁻¹] | kcat/Km [2] [M⁻¹ s⁻¹]
1 | CjDHAD (dihydroxy-acid dehydratase) (Campylobacter jejuni subsp. jejuni NCTC 11168 = ATCC 700819) | 820 | 6.5 | 7930 | – | – | –
2 | SaDHAD (dihydroxy-acid dehydratase) (Staphylococcus aureus subsp. aureus NCTC 8325) | – | – | – | 1100 | 2.1 | 1910
